Experimental data: patent publication US12060433B2, “CD73 inhibitor and A2A/A2B adenosine receptor inhibitor combination therapy” (Incyte Corporation, priority 2020, dated 2024)

Legend:
[1] = biological target: T1, cellular CD73 on MDA-MB-231 cells (Homo sapiens, UniProt P21589); assay: Cellular CD73 inhibition (AMP-Glo), MDA-MB-231 cells; format: cell-based; settings: 100 μM AMP, 3 hours
T1 construct: endogenous in cells; host or cells: MDA-MB-231
T1 sequence (P21589 27-549): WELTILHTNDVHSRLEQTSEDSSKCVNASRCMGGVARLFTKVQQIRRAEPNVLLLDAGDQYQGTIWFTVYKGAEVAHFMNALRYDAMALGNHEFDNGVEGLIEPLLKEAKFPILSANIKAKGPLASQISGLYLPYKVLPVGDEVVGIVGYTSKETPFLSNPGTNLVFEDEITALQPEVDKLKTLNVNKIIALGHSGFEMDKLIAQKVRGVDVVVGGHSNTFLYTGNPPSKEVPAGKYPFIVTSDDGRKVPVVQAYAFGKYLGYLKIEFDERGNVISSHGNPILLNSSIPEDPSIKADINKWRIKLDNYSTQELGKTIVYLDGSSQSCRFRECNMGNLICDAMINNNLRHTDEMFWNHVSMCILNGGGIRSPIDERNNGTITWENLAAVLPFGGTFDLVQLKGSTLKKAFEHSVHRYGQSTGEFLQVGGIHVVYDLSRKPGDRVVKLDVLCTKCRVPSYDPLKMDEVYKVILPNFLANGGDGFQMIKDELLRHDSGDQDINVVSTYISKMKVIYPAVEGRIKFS
Procedure: To measure ability of anti-CD73 antibody to inhibit CD73 activity on cells, A375 and MDA-MB-231 cells were washed with serum free RPMI media (ThermoFisher) and plated in 96-well plates at a concentration of 8×10^4 cells/well for A375 or 1×10^4 cells/well for MDA-MB-231. The cells were incubated with the indicated concentration of antibodies or APCP at 37° C. 5% C02 for 30 minutes (FIG. 3A, FIG. 3B, and FIG. 3C). Next, adenosine monophosphate (AMP) was added to a final concentration of 100 μM and cells were incubated an additional 3 hours at 37° C. 5% CO2. Plates were centrifuged for 1-2 minutes at 300 g and 25 μL of supernatant was transferred into a new 96-well plates. AMP-Glo Assay was used according to the manufacturer's instructions (Promega). Relative luminescence unit (RLU) is directly correlated with the AMP concentration in this assay. Results are depicted in FIG. 3A, FIG. 3B, and FIG. 3C. […] Results are depicted in FIG. 8A and FIG. 8B. […] Cells were incubated with the indicated concentration of antibodies or APCP at 37° C. 5% CO2 for 30 minutes. Next, AMP was added to a final concentration of 100 μM and cells were incubated an additional 3 hours at 37° C. 5% CO2. Plates were centrifuged for 1-2 minutes at 300 g and 25 μL of supernatant was transferred into a new 96-well plates. AMP-Glo Assay was used according to the manufacturer's instructions. […]

[2] = biological target: T2, mouse CD73 (SEQ ID NO: 71) (Mus musculus, UniProt Q61503); assay: SPR (Biacore 8K) binding affinity and kinetics to mouse CD73
T2 construct: purchased BPS Bioscience
T2 sequence (Q61503 29-551): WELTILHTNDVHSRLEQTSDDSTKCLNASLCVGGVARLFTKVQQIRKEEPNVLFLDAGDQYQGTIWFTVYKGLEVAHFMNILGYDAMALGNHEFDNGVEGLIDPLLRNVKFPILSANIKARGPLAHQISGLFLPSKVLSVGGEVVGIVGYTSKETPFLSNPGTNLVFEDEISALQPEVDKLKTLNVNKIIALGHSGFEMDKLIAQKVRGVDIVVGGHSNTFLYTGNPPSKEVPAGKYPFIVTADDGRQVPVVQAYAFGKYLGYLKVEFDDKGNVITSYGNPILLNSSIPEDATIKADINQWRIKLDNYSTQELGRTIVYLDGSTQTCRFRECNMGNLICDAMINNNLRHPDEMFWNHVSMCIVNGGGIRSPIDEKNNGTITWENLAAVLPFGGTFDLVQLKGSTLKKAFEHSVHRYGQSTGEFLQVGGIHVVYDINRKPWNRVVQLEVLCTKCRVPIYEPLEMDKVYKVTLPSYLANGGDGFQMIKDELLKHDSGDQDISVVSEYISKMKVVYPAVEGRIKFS
Procedure: The SPR running buffer (10 mM HEPES, 150 mM NaCl, 3 mM EDTA and 0.05% v/v Surfactant P20, pH 7.4) was prepared from 10×HBS-EP Buffer (GE Healthcare). Anti-human Fc antibodies (GE Healthcare) were immobilized via amine coupling on all sixteen flow cells of an S series sensor chip CM5 (GE Healthcare). The immobilization levels were ˜9000 RU for all flow cells. The desired capturing level of anti-CD73 antibody was achieved by flowing appropriate concentration of anti-CD73 antibody through the active flow cell of each channel. The non-cleavable ADP analogue APCP (adenosine-5′-(α,β-methylene) diphosphate) with the presence of Zn^2+ can be used to shift the CD73 conformational equilibrium from open towards closed. Therefore, recombinant CD73 was incubated with SPR running buffer in the presence of 100 μM APCP and 10 μM ZnCl2 (closed SPR running buffer) to study the binding of anti-CD73 antibody to the CD73 in the closed conformation. To achieve this, the ABA injection feature in Biacore 8K was used. For open conformation, the ABA injection sequence started with 60 seconds injection of running buffer. Then, CD73 3-fold serial dilution concentration series prepared from CD73 stock (BPS Bioscience) and running buffer were injected for 180 seconds immediately followed by running buffer for 240 seconds. […]

human CD73 = biological target: T3, human CD73 (Homo sapiens, UniProt P21589); assay: Epitope mapping by hydrogen-deuterium exchange mass spectrometry (HDX); settings: Fab in complex with CD73
T3 sequence (P21589 27-549 limits assumed): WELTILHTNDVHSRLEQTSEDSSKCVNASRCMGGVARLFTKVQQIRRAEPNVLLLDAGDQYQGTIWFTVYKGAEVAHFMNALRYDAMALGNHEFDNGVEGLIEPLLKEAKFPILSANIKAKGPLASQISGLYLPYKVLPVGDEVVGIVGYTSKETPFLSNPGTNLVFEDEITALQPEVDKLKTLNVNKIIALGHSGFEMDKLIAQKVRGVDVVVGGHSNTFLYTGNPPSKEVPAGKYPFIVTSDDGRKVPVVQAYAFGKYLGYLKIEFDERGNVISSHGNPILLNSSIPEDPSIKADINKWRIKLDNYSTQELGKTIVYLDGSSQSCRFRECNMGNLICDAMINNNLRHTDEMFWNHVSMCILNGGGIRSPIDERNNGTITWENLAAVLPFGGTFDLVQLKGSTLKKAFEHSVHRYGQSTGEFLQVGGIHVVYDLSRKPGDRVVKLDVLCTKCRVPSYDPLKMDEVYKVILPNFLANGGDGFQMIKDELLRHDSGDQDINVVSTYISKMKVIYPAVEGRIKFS
Procedure: To map the epitope of CL25, Hydrogen-deuterium exchange mass spectrometry (HDX) was performed. CD73 was incubated in deuterium oxide either alone or in complex with CL25 Fab. The deuterium exchange was carried out at 20° C. for 0 seconds, 60 seconds, 600 seconds, or 3600 seconds. The exchange reaction was quenched by low pH and the proteins were digested with pepsin/protease VIII. The deuterium levels at the identified peptides were monitored from the mass shift on LC-MS. The deuterium buildup curves over exchange time for all the peptides were plotted vs time. Peptides with significant reduction in deuterium uptakes upon binding to Fab were assigned as the epitopes for each antibody.

B1: CL25: chimeric anti-human CD73 monoclonal antibody, murine VH SEQ ID NO:26 and VL SEQ ID NO:27 with human IgG1 Fc (antibody, V domains shown)
VH: QVQLQQSGAELARPGASVKLSCRASGYTFTSYGLSWVKQRTGQGLEWIGEIYPGSGNTYYNEKFKGKATLTADKSSSTAYMELRSLTSEDSAVYFCARYDYLGSSYGFDYWGQGTTLTVSS
VL: DIVMTQSHKFMSTSVGDRVSITCKASQDVSTAVAWYQQKPGQSPKLLIYSASYRYNGVPDRFTGSGSGTDFTFTISSVQAEDLAVYYCQQHYNTPYTFGGGTKLEIK
modifications: human IgG1 Fc constant regions without entry
What does the source list for B1?
cellular CD73 inhibition [1]: good potency; KD ([2]; murine CD73, closed conformation (merged ka/kd/KD cell)): No Binding; KD ([2]; murine CD73, open conformation (merged ka/kd/KD cell where no binding)): No Binding; epitope determined by HDX-MS (human CD73): TKVQQIRRAEPNVL
